# Assay results from publication doi:10.1101/2025.10.27.684804.
# Molecular target: peptide containing the APP12 polyproline motif and a N-terminal TAMRA label
# Experiment: fluorescence polarisation
substance,measurement,value
naive fusion of bmTyr and Fyn-SH3 linked by a short glycine/serine linker (from UniProt P06241 84-141) (enzyme),Kd,< 2000 nM
